The results in this text go back to patent US20250352667A1.

For experiment [1], the target named is KEAP1 (wild-type full-length), His-tagged (human) (UniProt Q14145). The experiment in a line: AlphaScreen; 9.6 nM FLAG-NRF2, 150 nM His-KEAP1; Repeat 2 (same value as in Table 22). (Alpha assays give light when donor and acceptor beads are brought close together.)
Experiment [2] has the same target. In words: AlphaScreen, all variants on one plate; average of three conditions, KEAP1 150 nM; the reference itself.
For experiment [3] the target is unchanged. In words: AlphaScreen; 19.2 nM FLAG-NRF2, 150 nM His-KEAP1; Repeat 2 (same value as in Table 22).
Experiment [4] has the same target. In words: AlphaScreen; 19.2 nM FLAG-NRF2, 150 nM His-KEAP1 (same value as in Table 22).
Experiment [5] has the same target. The experiment in a line: AlphaScreen; 38.4 nM FLAG-NRF2, 150 nM His-KEAP1; Repeat 2 (same value as in Table 22).
Experiment [6] has the same target. In words: AlphaScreen; 19.2 nM FLAG-NRF2, 150 nM His-KEAP1; Repeat 2 (same value as in Table 23).
For experiment [7] the target is unchanged. The experiment in a line: AlphaScreen; 38.4 nM FLAG-NRF2, 150 nM His-KEAP1 (same value as in Table 23).
The target is the same in experiment [8]. In words: AlphaScreen, all variants on one plate; upper condition (38.4 nM NRF2), KEAP1 150 nM; relative to NRF2 (WT) isoform 2.
For experiment [9] the target is unchanged. In words: AlphaScreen; 9.6 nM FLAG-NRF2, 150 nM His-KEAP1; Repeat 2 (same value as in Table 23).
The target is the same in experiment [10]. In words: AlphaScreen; 38.4 nM FLAG-NRF2, 150 nM His-KEAP1; against wild-type NRF2 isoform 2 = 100%.
For experiment [11] the target is unchanged. The experiment in a line: AlphaScreen; 9.6 nM FLAG-NRF2, 150 nM His-KEAP1; against wild-type NRF2 isoform 2 = 100%.
Experiment [12] shares this target. In words: AlphaScreen; 19.2 nM FLAG-NRF2, 150 nM His-KEAP1 (same value as in Table 23).

Sequence of KEAP1 (wild-type full-length), His-tagged (human) (Q14145 2-624 limits assumed, form in doubt): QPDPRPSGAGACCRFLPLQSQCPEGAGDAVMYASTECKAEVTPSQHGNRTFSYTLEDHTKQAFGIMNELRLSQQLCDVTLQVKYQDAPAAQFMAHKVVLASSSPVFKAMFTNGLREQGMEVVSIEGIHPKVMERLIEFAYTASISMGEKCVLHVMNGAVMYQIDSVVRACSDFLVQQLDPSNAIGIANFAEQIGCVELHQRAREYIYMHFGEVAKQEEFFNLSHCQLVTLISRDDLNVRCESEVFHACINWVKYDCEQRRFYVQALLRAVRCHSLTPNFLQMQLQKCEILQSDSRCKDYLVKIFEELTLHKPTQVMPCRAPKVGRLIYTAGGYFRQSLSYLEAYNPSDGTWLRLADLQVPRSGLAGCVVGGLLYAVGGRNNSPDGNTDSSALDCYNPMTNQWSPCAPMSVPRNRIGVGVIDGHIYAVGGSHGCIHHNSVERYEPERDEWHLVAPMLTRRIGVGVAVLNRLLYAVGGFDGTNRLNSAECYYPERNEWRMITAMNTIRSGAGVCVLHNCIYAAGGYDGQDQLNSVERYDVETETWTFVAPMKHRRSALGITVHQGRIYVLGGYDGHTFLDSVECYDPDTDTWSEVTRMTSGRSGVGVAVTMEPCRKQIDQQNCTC

Turning to “NRF2 isoform 2 (wild-type full-length), FLAG-tagged”, the A-counts in [1] amounted to 2590 A-counts; in [3], 3260 A-counts; in [5] it was 3460 A-counts. Also, the % Disruption in Binding (Reported Values) in experiment [2] worked out at 0%. In addition, in experiment [4], the S/N came out at 4.2.

With “NRF2 isoform 2 (E63G/E66G full-length), FLAG-tagged”, the results for the A-counts in [6] and in experiment [9] were 1950 A-counts and 1520 A-counts, respectively. The S/N in experiment [7] and in experiment [12] was 1.8 throughout. Further, in experiment [8], the % Disruption in Binding was 61.9%. The results for the Binding Percentage (%) in experiment [10] and in experiment [11] were 37.8% and 35.7%, respectively.
